What was measured:
[1] = biological target: human FcRn (GFP-hFcRn construct lacking the endosomal targeting domain, expressed on the plasma membrane of human 293 cells) (human) (UniProt P55899); experiment: flow cytometry competition against hIgG-Alexa Fluor 647 (40 µg/ml) on 293 cells expressing GFP-hFcRn, pH 5.8
[2] = biological target: human FcRn (GFP-hFcRn construct lacking the endosomal targeting domain, expressed on the plasma membrane of human 293 cells) (human) (UniProt P55899); experiment: flow cytometry competition against hIgG-Alexa Fluor 647 on 293 cells expressing GFP-hFcRn, pH 5.8

Chain of UniProt P55899 (P55899 24-321): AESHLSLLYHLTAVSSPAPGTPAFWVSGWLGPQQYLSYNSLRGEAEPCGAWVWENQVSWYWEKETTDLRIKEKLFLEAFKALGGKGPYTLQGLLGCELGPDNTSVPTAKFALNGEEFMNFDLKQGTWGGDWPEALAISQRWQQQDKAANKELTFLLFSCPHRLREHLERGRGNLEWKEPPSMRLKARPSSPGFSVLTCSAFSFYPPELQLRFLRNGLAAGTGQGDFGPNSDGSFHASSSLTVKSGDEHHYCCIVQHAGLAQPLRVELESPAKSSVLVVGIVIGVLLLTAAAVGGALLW

IC50 [1] [µM] | fold decrease of IC50 against unconjugated hIgG [2] [fold] | Substance
11.4 |  | human immunoglobulin G (hIgG), unconjugated (antibody)
5.4 | 2 | biotinylated human immunoglobulin G (hIgG-biotin) (antibody)
